# Assay results from patent US20210002363A1 (PHANES THERAPEUTICS, published 2021).
# Where a chain is given by its changes, count along the chain named.
# B1: F10-H1L3 (antibody, V domains shown)
# VH: EVQLVQSGAEVKKPGSSVKVSCKASGYAFSSSWMNWVRQAPGQGLEWIGRIYPGDGYTHYNGMFKGRASLTADKSTSTGYMELSSLRSEDTAVFFCTRHGDFPYWYFDVWGRGTLVTVSP
# VL: DIQMTQSPSTLSASVGDRVTITCRASENIDSYLAWYQQKPGRAPKLLVYAATNLAVGVPSRFSGSGSGTEYTLTISSLQSEDFATYYCQHHYSTPPTFGQGTKLEIK
# notes: also called humanized F10 mAb H1L3
# B2: F17-H1L1 (antibody, V domains shown)
# VH: EVQLVETGGGLIQPGGSLRLSCAASGFTFSDFGMHWIRQAPGKGLEWVAYMSYTPGTFHYADTVKDRFTISRDNSKNTLYLQMNSLRAEDTAVYYCARVHVGTVDYWGQGTLVTVSS
# VL: EVVLTQSPATLSLSPGERATLSCRASQNINNNLHWFQQKPGQAPRLLIKYASQSISGIPARFSGSGSGTDFTLTISSLEPEDFAVYFCQQSNSWPALTFGQGTKVEIK
# notes: also called humanized F17 mAb H1L1
# B3: F20-H2L2 (antibody, V domains shown)
# VH: QVQLVQSGAEVKKPGSSVKVSCKASGYTFASYYLYWVRQAPGQGLEWIGEINPRSGGTNFNEKFKSRATVTVDASTSTAYMELSSLRSEDTAVYYCSRSGRLRGFYTMDYWGQGTLVTVSS
# VL: DIVMTQSPDSLAVSLGERATINCKAGENVGSYVSWYQQKPGQSPKLLIYGASNRYTGVPDRFSGSGSATDFTLTISSLQAEDVAVYYCGQTYRFLTFGQGTKVEIK
# notes: also called humanized F20 mAb H2L2
# B4: F20-H2L1 (antibody, V domains shown)
# VH: B3 VH
# VL: B3 VL with S43P
# notes: also called humanized F20 mAb H2L1
# B5: F20-H1L4 (antibody, V domains shown)
# VH: B3 VH with A74K
# VL: DIQMTQSPSTLSASVGDRVTITCKAGENVGSYVSWYQQKPGKAPKLLIYGASNRYTGVPARFSGSGSATEFTLTISSLQPEDFATYYCGQTYRFLTFGQGTKVEVK
# notes: also called humanized F20 mAb H1L4
# B6: F20-H2L3 (antibody, V domains shown)
# VH: B3 VH
# VL: B5 VL with E81D
# notes: also called humanized F20 mAb H2L3
# B7: F20-H3L3 (antibody, V domains shown)
# VH: B3 VH with R67K, A74K, S77N
# VL: B5 VL with E81D
# notes: also called humanized F20 mAb H3L3
# B8: F20-H3L4 (antibody, V domains shown)
# VH: B3 VH with R67K, A74K, S77N
# VL: B5 VL
# notes: also called humanized F20 mAb H3L4
# B9: chimeric anti-FOLR1 mAb F5 (antibody, V domains shown)
# VH: EVQLVESGGELVKPGGSLKLSCAVSGFTFSNYGMSWVRQTPDKRLEWVATISSGGSYTYYPDSVKGRFTISRDNDKNTLYLQMSSLKSEDTAMYYCSTQGSSGYVGYWGQGTTLTVSS
# VL: DIQMTQSPSSLSAFLGGKVTITCKASQDITNFIGWYQHKPGKGPRLLISYTSILESGIPSRFSGSGSGRDYSFSISNLEPEDIATYYCLQYYNLWTFGGGTKLEIK
# notes: also called Chimeric mAb F5
# B10: chimeric anti-FOLR1 mAb F10 (antibody, V domains shown)
# VH: QVQLQQSGPELVKPGASVKISCKASGYAFSSSWMNWVRQRPGKGLEWIGRIYPGDGYTHYNGMFKGKATLTADKSSSTGYMQLSSLTSEDSAVYFCTRHGDFPYWYFDVWGTGTTVTVSS
# VL: DIQMTQSPASLSASVGESVTITCRASENIDSYLAWYQQKQGKSPQLLVYAATNLAVGVPSRFSGSGSGTQYTLKINSLQSEDVARYYCQHHYSTPPTFGGGTKLEIK
# notes: also called Chimeric mAb F10
# B11: chimeric anti-FOLR1 mAb F17 (antibody, V domains shown)
# VH: DVQLVESGGGLVQPGGSRKLSCAASGFTFSDFGMHWIRQAPERGLEWVAYMSYTPGTFHYADTVKDRFFISRDNAKNTLFLQMTSLRSDDTAMYYCARVHVGTVDYWGQGTSVTVSS
# VL: DVVLTQSPATLSVTPGDSVSLSCRASQNINNNLHWFQQKSHESPRLLIKYASQSISGIPSRFSGSGSGTDFTLSINNVETEDFGIYFCQQSNSWPALTFGTGTKVELK
# notes: also called Chimeric mAb F17
# B12: F5-H4L1 (antibody, V domains shown)
# VH: EVQLVESGGGLVQPGGSLRLSCAVSGFTFSNYGMSWVRQAPGKGLEWVATISSGGSYTYYPDSVKGRFTISRDNDKNTLYLQMSSLRAEDTAVYYCSTQGSSGYVGYWGQGTLVTVSS
# VL: DIQMTQSPSSVSASVGDRVTITCKASQDITNFIGWYQHKPGKAPKLLISYTSILESGVPSRFSGSGSGRDYTLTISSLQPEDFATYYCLQYYNLWTFGGGTKVEIK
# notes: also called humanized F5 mAb H4L1
# B13: F5-H4L2 (antibody, V domains shown)
# VH: B12 VH
# VL: B12 VL with R69T
# notes: also called humanized F5 mAb H4L2
# Legend:
# [1] = molecular target: T1, FOLR1 on SK-OV-3 cells (ATCC HTB-77) (Homo sapiens (Human), UniProt P15328 25-234); test: FACS on SK-OV-3 cells; MFI
# T1 construct: Endogenous FOLR1 of the cell line; also called cells that are known to express FOLR1
# T1 sequence (P15328 25-234 limits assumed): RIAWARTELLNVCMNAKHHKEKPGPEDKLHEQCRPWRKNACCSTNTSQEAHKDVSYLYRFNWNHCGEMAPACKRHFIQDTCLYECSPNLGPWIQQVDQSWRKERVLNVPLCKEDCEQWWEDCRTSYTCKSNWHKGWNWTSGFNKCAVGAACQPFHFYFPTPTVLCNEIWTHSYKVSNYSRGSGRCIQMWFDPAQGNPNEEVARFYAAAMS
# [2] = molecular target: T2, Recombinant extracellular domain of human FOLR1 (Novoprotein, Cat#: C784) (human, UniProt P15328 25-233, limits assumed); test: ELISA on immobilized FOLR1 extracellular domain; O.D. 450 nm
# T2 construct: Bought reagent; also called recombinant FOLR1; immobilized FOLR1 extracellular domain
# T2 sequence (P15328 25-233 limits assumed): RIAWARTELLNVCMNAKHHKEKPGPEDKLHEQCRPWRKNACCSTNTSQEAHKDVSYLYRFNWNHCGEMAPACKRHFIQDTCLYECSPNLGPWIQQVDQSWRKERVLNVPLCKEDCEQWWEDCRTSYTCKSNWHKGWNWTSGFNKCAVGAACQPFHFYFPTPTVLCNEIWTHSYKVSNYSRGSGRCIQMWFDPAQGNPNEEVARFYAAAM
# [3] = molecular target: T1, FOLR1 on SK-OV-3 cells (ATCC HTB-77); test: FACS on SK-OV-3 cells; MFI; remark: listed apart in the source
# [4] = molecular target: T2, Recombinant extracellular domain of …; test: ELISA on immobilized FOLR1 extracellular domain; O.D. 450 nm; remark: listed apart in the source
# [5] = molecular target: T2, Recombinant extracellular domain of …; test: as above; remark: listed apart in the source
# [6] = molecular target: T1, FOLR1 on SK-OV-3 cells (ATCC HTB-77); test: FACS on SK-OV-3 cells; MFI; remark: listed apart in the source
# [7] = molecular target: T2, Recombinant extracellular domain of …; test: ELISA on immobilized FOLR1 extracellular domain; O.D. 450 nm; remark: listed apart in the source
# [8] = molecular target: T2, Recombinant extracellular domain of …; test: as above; remark: listed apart in the source
# [9] = molecular target: T2, Recombinant extracellular domain of …; test: as above; remark: listed apart in the source
# [10] = molecular target: T1, FOLR1 on SK-OV-3 cells (ATCC HTB-77); test: FACS on SK-OV-3 cells; Alexa Fluor 488 F(ab')2 goat anti-human IgG Fc; MFI
# Method: To assess the binding of the chimeric anti-FOLR1 mAbs to cells that are known to express FOLR1, SK-OV-3 (ATCC® HTB-77™) cells were plated at 80,000 cells per well on a 96-well non-binding U-bottom plate (Greiner Bio-One, Cat#: 650901). In some experiments, 90,000 cells per well were used. The cells were incubated in 50 μL FACS buffer (HBSS with 0.1% BSA and 0.05% sodium azide) containing mAbs at different concentrations on ice for 15 minutes. After wash, cells were incubated in 50 μL FACS buffer containing 3.5 μg/mL F(ab′)2-Goat anti-Human IgG Fc conjugated to Alexa Fluor® 488 (Invitrogen, Cat#: H10120) on ice for 15 minutes in dark and washed again. Cells were analyzed using an Attune NxT flow cytometer. MFI, mean fluorescence intensity.
# [11] = molecular target: T2, Recombinant extracellular domain of …; test: SPR (Biacore 8k), mAb captured on protein A chip, recombinant FOLR1 as analyte, 1:1 model
# Method: The interaction of the chimeric anti-FOLR1 mAbs and FOLR1 was measured by Surface Plasmon Resonance (SPR) (Biacore 8k, GE Healthcare). Briefly, an anti-FOLR1 mAb was immobilized to a protein A sensor chip (GE Healthcare, Cat#: 29-1275-56) in HBS-P buffer (0.01 M HEPES pH 7.4, 0.15 M NaCl, 0.05% v/v Surfactant P20) with an injection flow rate at […]. The recombinant FOLR1 (Novoprotein, Cat#: C784) at variant concentrations was loaded with the flow rate of 30 μL/min in HBS-P buffer. Following antigen loading, the surface was regenerated with 10 mM glycine-HCl (pH 1.5). Sensor grams were fit with a 1:1 binding model using Biacore 8k evaluation software (GE Healthcare).
# [12] = molecular target: T2, Recombinant extracellular domain of …; test: ELISA on plate-coated recombinant human FOLR1 extracellular domain; anti-human IgG-HRP; O.D. 450 nm
# Method: The Purified chimeric mAbs were tested in an ELISA assay for their ability to bind to immobilized human FOLR1. Recombinant extracellular domain of human FOLR1 (Novoprotein, Cat#: C784) in carbonate coating buffer was coated on a 96-well plate at room temperature for 1 hour. The plate is blocked by 5% BSA in TBST for 1 hour at room temperature. In each well of an individual plate, mAbs at various concentrations were incubated for 1 hour at room temperature. The plate was washed and the binding to FOLR1 was detected by anti-human IgG conjugated to horseradish peroxidase (hIgG-HRP) (ThermoFisher Scientific, Cat#: H10007) with incubation for 1 hour at room temperature. Then after washing, the ELISA was developed using One-step Detection Solution (ThermoFisher Scientific, Cat#: 34028) and measured as the absorbance at 450 nm.
# [13] = molecular target: T2, Recombinant extracellular domain of …; test: ELISA on immobilized FOLR1 extracellular domain; O.D. 450 nm; remark: listed apart in the source
# [14] = molecular target: T2, Recombinant extracellular domain of …; test: as above; remark: listed apart in the source
# [15] = molecular target: T2, Recombinant extracellular domain of …; test: as above; remark: listed apart in the source
binder,measurement,setting,value
B1,EC50 (read off the curve),[1],~3 nM
B2,EC50 (read off the curve),[2],0.1 to 0.2 nM
B3,binding result,[3],binds
same,binding result,[4],binds
B4,binding result,[3],binds
same,binding result,[4],binds
B5,EC50 (read off the curve),[5],~0.3 nM
B6,EC50 (read off the curve),[4],~0.3 nM
B7,EC50 (read off the curve),[6],~1 nM
same,EC50 (read off the curve),[7],0.2 to 0.3 nM
B8,EC50 (read off the curve),[6],~1 nM
same,EC50 (read off the curve),[5],~0.3 nM
B9,EC50 (read off the curve),[8],0.1 to 0.2 nM
same,EC50 (read off the curve),[9],0.2 to 0.3 nM
same,EC50 (read off the curve),[10],~0.4 nM
same,Kd,[11],0.352 nM
same,EC50 (read off the curve),[12],~0.1 nM
B10,EC50 (read off the curve),[13],~0.2 nM
same,EC50 (read off the curve),[10],~0.9 nM
same,Kd,[11],0.704 nM
same,EC50 (read off the curve),[12],~0.2 nM
B11,EC50 (read off the curve),[2],0.2 to 0.3 nM
same,EC50 (read off the curve),[14],0.2 to 0.3 nM
same,EC50 (read off the curve),[10],~0.8 nM
same,Kd,[11],0.265 nM
same,EC50 (read off the curve),[12],0.1 to 0.2 nM
B12,EC50 (read off the curve),[15],~0.4 nM
B13,EC50 (read off the curve),[15],~0.4 nM
